Test results as given in patent publication US20050089523A1.

Assays:
[1] = biological target: murine vascular endothelial adhesion molecule-1 (VCAM-1) (murine) (UniProt P29533); assay: cell-based or functional assay
[2] = biological target: murine vascular endothelial adhesion molecule-1 (VCAM-1) (murine) (UniProt P29533); assay: bEnd.3 cells treated with coaguligand, detected with 125I-labeled 10H10; attributed to constitutive VCAM-1 expression
[3] = biological target: anti-VCAM-1•tTF coaguligand (anti-VCAM-1 antibody MK2.7 covalently linked through SMPT to truncated tissue factor, one antibody to one tTF, Mr 180,000) (human) (UniProt P13726); assay: 125I-labeled 10H10 bound to anti-VCAM-1•tTF-treated, IL-1alpha-activated bEnd.3 cells, at saturation

Sequence of UniProt P29533 (P29533 25-739): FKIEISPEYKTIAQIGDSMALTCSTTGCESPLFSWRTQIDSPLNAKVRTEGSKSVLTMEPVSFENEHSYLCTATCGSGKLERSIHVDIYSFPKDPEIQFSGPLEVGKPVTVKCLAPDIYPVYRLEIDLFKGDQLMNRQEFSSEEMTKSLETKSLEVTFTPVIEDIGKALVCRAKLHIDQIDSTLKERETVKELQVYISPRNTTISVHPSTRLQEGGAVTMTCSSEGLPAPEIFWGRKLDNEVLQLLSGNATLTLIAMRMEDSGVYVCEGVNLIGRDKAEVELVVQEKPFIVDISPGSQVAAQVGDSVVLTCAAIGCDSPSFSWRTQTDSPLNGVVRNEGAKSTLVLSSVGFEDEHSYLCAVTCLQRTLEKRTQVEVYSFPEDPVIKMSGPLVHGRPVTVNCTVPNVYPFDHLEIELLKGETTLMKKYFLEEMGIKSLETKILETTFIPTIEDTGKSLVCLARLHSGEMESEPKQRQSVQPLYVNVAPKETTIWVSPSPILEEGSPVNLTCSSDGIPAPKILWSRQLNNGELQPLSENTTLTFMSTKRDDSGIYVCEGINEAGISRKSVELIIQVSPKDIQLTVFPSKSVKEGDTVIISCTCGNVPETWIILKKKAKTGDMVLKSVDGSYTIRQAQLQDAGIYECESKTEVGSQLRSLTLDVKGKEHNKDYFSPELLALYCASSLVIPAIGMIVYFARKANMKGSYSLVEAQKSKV

Substance | Generation of Factor Xa by anti-VCAM-1•tTF bound to intact, IL-1α-stimulated bEnd.3 cells (ng per 10^4 cells per 60 min.) [1] | Generation of Factor Xa by anti-VCAM-1•tTF bound to intact, unstimulated (control) bEnd.3 cells (ng per 10^4 cells per 60 min.) [1] | Generation of Factor Xa by anti-VCAM-1•tTF bound to saponin-permeabilized, IL-1α-stimulated bEnd.3 cells (ng per 10^4 cells per 60 min.) [1] | Generation of Factor Xa by anti-VCAM-1•tTF bound to saponin-permeabilized, unstimulated (control) bEnd.3 cells (ng per 10^4 cells per 60 min.) [1] | binding to unstimulated cells relative to activated cells [2] | amount of anti-TF antibody bound at saturation [3] | molecules of anti-TF antibody bound per cell (molecules per cell) [3]
anti-VCAM-1•tTF coaguligand (anti-VCAM-1 antibody MK2.7 covalently linked through SMPT to truncated tissue factor, one antibody to one tTF, Mr 180,000) (from UniProt P13726 33-251) | 3.17 | 1.64 | 98.8 | 49.2 | 0.5 | – | –
10H10, mouse monoclonal antibody against human tissue factor | – | – | – | – | – | 8.7 fmol | 540000
